Results published in patent EP4796129A1 (Celltrion, Inc., dated 2025).
Positions count from the first letter of the chain named.

T1: recombinant cynomolgus monkey Nectin-4 protein (cynomolgus monkey, UniProt A0A2K5WES1 32-349)
T1 construct: Recombinant protein; construct not described; also called cynomolgus Nectin-4
T1 sequence: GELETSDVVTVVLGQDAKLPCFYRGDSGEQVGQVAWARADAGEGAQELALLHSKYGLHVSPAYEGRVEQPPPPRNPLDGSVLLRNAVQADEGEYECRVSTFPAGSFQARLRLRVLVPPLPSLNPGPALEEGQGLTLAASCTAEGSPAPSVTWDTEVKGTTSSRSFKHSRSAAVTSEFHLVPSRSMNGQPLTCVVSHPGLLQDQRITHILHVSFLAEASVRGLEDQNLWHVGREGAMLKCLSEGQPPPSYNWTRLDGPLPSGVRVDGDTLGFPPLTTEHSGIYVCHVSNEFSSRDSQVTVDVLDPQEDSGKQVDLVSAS

T2: recombinant human Nectin-4 protein (human, UniProt Q96NY8 32-349)
T2 construct: Recombinant protein; construct not described
T2 sequence (looked up): T1 sequence with A39V, V230I

T3: recombinant rat Nectin-4 protein (rat, UniProt D3ZET1 31-348)
T3 construct: Recombinant protein; construct not described
T3 sequence: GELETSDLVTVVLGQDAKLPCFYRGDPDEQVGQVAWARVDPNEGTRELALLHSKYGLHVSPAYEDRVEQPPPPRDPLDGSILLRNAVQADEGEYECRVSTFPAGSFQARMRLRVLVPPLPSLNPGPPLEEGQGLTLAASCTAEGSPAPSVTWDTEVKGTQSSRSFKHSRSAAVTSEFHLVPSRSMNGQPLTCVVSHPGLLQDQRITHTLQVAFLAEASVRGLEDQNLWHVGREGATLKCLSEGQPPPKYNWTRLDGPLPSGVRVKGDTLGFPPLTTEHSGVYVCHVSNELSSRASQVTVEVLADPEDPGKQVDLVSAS

T4: recombinant human Nectin-2 (human, UniProt Q92692 32-360, limits assumed)
T4 construct: Recombinant protein; construct not described
T4 sequence (looked up): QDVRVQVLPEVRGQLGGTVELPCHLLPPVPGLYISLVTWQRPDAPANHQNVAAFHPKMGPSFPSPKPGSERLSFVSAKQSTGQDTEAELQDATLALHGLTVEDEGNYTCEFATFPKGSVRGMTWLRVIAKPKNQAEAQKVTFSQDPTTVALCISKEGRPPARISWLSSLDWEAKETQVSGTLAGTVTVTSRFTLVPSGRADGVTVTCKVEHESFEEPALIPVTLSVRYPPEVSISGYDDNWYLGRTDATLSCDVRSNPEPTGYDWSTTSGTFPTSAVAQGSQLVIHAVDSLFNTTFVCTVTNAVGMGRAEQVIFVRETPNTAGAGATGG

T5: recombinant human Nectin-1 (human, UniProt Q15223 31-334, limits assumed)
T5 construct: Recombinant protein; construct not described
T5 sequence (looked up): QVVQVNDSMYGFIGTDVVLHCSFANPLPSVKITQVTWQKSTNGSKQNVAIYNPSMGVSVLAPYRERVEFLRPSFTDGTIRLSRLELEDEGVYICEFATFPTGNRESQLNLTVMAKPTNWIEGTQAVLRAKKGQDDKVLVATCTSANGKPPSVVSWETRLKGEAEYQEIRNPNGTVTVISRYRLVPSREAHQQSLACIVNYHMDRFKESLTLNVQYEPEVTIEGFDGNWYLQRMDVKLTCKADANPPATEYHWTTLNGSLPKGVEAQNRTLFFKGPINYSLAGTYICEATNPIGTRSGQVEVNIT

B1: Enfortumab-PBX-7016 ADC (antibody, V domains shown)
VH: EVQLVESGGGLVQPGGSLRLSCAASGFTFSSYNMNWVRQAPGKGLEWVSYISSSSSTIYYADSVKGRFTISRDNAKNSLSLQMNSLRDEDTAVYYCARAYYYGMDVWGQGTTVTVSS
VL: DIQMTQSPSSVSASVGDRVTITCRASQGISGWLAWYQQKPGKAPKFLIYAASTLQSGVPSRFSGSGSGTDFTLTISSLQPEDFATYYCQQANSFPPTFGGGTKVEIKR
modifications: mc-GGFG-PBX-7016 linker-payload on cysteine thiols freed by TCEP reduction of the disulfides; positions not given
B2: Enfortumab mAb (antibody, human IgG1, kappa, V domains shown)
VH: B1 VH
VL: B1 VL
notes: Naked antibody (source: Abinvivo); also called anti-Nectin-4 antibody (Enfortumab); anti-Nectin4 mAb

What was measured:
[1] = target: T1, recombinant cynomolgus monkey Nectin-4 …; assay: BLI, antibody as loading sample
[2] = target: T2, recombinant human Nectin-4 protein; assay: BLI, antibody as loading sample
[3] = target: T3, recombinant rat Nectin-4 protein; assay: BLI, antibody as loading sample
[4] = target: T1, recombinant cynomolgus monkey Nectin-4 …; assay: ELISA on recombinant protein
[5] = target: T2, recombinant human Nectin-4 protein; assay: ELISA on recombinant protein
[6] = target: T3, recombinant rat Nectin-4 protein; assay: ELISA on recombinant protein
[7] = target: T6, recombinant human Nectin-3 (human, UniProt Q9NQS3 58-404, limits assumed); assay: ELISA
T6 construct: Recombinant protein; construct not described

[8] = target: T4, recombinant human Nectin-2; assay: ELISA
[9] = target: T5, recombinant human Nectin-1; assay: ELISA

T6 sequence (Q9NQS3 58-404 limits assumed): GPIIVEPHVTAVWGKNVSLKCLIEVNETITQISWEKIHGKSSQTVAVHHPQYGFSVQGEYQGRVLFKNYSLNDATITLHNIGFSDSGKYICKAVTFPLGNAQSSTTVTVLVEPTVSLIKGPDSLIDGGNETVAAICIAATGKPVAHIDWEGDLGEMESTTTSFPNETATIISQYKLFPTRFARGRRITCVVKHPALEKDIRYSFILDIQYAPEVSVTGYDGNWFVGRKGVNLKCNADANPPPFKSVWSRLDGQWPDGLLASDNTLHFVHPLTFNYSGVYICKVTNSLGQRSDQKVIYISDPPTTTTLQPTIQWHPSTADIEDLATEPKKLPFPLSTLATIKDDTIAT

Row | Binder | Kd [1] [nM] | Response [1] | Kd [2] [nM] | Response [2] | Kd [3] [nM] | Response [3] | EC50 [4] [ng/mL] | EC50 [5] [ng/mL] | EC50 [6] [ng/mL] | binding result [7] | binding result [8] | binding result [9] | koff [1] [s⁻¹] | kon [1] [M⁻¹ s⁻¹] | koff [2] [s⁻¹] | kon [2] [M⁻¹ s⁻¹] | koff [3] [s⁻¹] | kon [3] [M⁻¹ s⁻¹]
1 | B1 | 1.78 | 0.643 | 2.89 | 0.621 | 3.2 | 0.511 | 7.94 | 8.31 | 9.88 | no binding | no binding | no binding |  |  |  |  |  | 
2 | B2 | 6.05 | 0.67 | 5.02 | 0.681 | 3.96 | 0.606 | 8.43 | 8.38 | 9.63 | no binding | no binding | no binding | 0.00191 | 316000 | 0.00136 | 271000 | 0.00149 | 376000
